Results taken from patent US20100144636A1, “PEPTIDES DERIVED FROM RAS-P21 AND USES THEREFOR” (THE RESEARCH FOUNDATION OF STATE UNIVERSITY OF NEW YORK, priority 2008, published 2010).

B1: MKP-1T4: MAPK phosphatase that de-activates this kinase (protein, UniProt P28562 1-367, looked up)
Dual specificity protein …: MVMEVGTLDAGGLRALLGERAAQCLLLDCRSFFAFNAGHIAGSVNVRFSTIVRRRAKGAMGLEHIVPNAELRGRLLAGAYHAVVLLDERSAALDGAKRDGTLALAAGALCREARAAQVFFLKGGYEAFSASCPELCSKQSTPMGLSLPLSTSVPDSAESGCSSCSTPLYDQGGPVEILPFLYLGSAYHASRKDMLDALGITALINVSANCPNHFEGHYQYKSIPVEDNHKADISSWFNEAIDFIDSIKNAGGRVFVHCQAGISRSATICLAYLMRTNRVKLDEAFEFVKQRRSIISPNFSFMGQLLQFESQVLAPHCSAEAGSPAMAVLDRGTSTTTVFNFPVSIPVHSTNSALSYLQSPITTSPSC
B2: GST-pi: glutathione-S-transferase, pi isozyme, selective inhibitor of JNK-induced phosphorylation of jun (protein, UniProt P09211 2-210, looked up)
Glutathione S-transferase P: PPYTVVYFPVRGRCAALRMLLADQGQSWKEEVVTVETWQEGSLKASCLYGQLPKFQDGDLTLYQSNTILRHLGRTLGLYGKDQQEAALVDMVNDGVEDLRCKYISLIYTNYEAGKDDYVKALPGQLKPFETLLSQNQGGKTFIVGDQISFADYNLLDLLLIHEVLAPGCLDAFPLLSAYVGRLSARPKLKAFLASPEYVNLPINGNGKQ

Assays:
[1] = test system: oncogenic (Val 12-containing) ras-p21-induced oocyte maturation; assay: Oncogenic ras-p21-induced oocyte maturation (GVBD); type: cell-based, Xenopus laevis; conditions: injected/co-injected with oncogenic ras-p21 into oocytes
Source text: (§1) The Applicants have synthesized both of the inventive peptides, referred to as PNC-7 and PNC-2, and assayed them for their abilities to block oncogenic ras-p21 induction of maturation of Xenopus laevis oocytes. Injection of oncogenic, but not wild-type ras-p21, into these oocytes induce oocyte maturation, i.e., completion of the second meiotic division, as measured by germinal vesicle membrane breakdown (GVBD). Insulin also induces oocyte maturation in a manner that requires activation of endogenous wild-type ras-p21.

[2] = test system: insulin-induced oocyte maturation; assay: Insulin-induced oocyte maturation (activated wild-type ras-p21); type: cell-based, Xenopus laevis; conditions: oocytes induced to mature with insulin
Source text: as §1

| Molecule | inhibition of oncogenic ras-p21-induced oocyte maturation [1] | inhibition of insulin-induced oocyte maturation [2] |
| --- | --- | --- |
| B1 | completely blocks | considerably less effect |
| B2 | complete inhibition of oocyte maturation | no effect |
